How the values were obtained:
Amyloid β 1–40 H6A [1] = assay: SPR; preformed fibrils immobilised on a CM5 chip by amine coupling (3500 RU), probed with monomers of the same variant; monomer onto fibril end; 25 °C, 20 μL/min, 20 mM phosphate pH 7.4, 150 mM NaCl; slow phase of dissociation only; KD = RD/RA x KD of Aβ1-40 wt (100 nM, from earlier work)
Amyloid β 1–40 H6A [2] = assay: SPR; preformed fibrils immobilised on a CM5 chip by amine coupling (3500 RU), probed with monomers of the same variant; monomer onto fibril end; 25 °C, 20 μL/min, 20 mM acetate pH 5.5, 150 mM NaCl; slow phase of dissociation only; KD = RD/RA x KD of Aβ1-40 wt (1 nM, from earlier work)
[3] = target: Amyloid β 1–40 H6A, H13A, H14A; assay: SPR; preformed fibrils immobilised on a CM5 chip by amine coupling (3500 RU), probed with monomers of the same variant; monomer onto fibril end; 25 °C, 20 μL/min, 20 mM phosphate pH 7.4, 150 mM NaCl; slow phase of dissociation only; KD = RD/RA x KD of Aβ1-40 wt (100 nM, from earlier work)
[4] = target: Amyloid β 1–40 H6A, H13A, H14A; assay: SPR; preformed fibrils immobilised on a CM5 chip by amine coupling (3500 RU), probed with monomers of the same variant; monomer onto fibril end; 25 °C, 20 μL/min, 20 mM acetate pH 5.5, 150 mM NaCl; slow phase of dissociation only; KD = RD/RA x KD of Aβ1-40 wt (1 nM, from earlier work)
Amyloid β 1–40 H13A [5] = assay: SPR; preformed fibrils immobilised on a CM5 chip by amine coupling (3500 RU), probed with monomers of the same variant; monomer onto fibril end; 25 °C, 20 μL/min, 20 mM phosphate pH 7.4, 150 mM NaCl; slow phase of dissociation only; KD = RD/RA x KD of Aβ1-40 wt (100 nM, from earlier work)
Amyloid β 1–40 H13A [6] = assay: SPR; preformed fibrils immobilised on a CM5 chip by amine coupling (3500 RU), probed with monomers of the same variant; monomer onto fibril end; 25 °C, 20 μL/min, 20 mM acetate pH 5.5, 150 mM NaCl; slow phase of dissociation only; KD = RD/RA x KD of Aβ1-40 wt (1 nM, from earlier work)
Amyloid β 1–40 H14A [7] = assay: SPR; preformed fibrils immobilised on a CM5 chip by amine coupling (3500 RU), probed with monomers of the same variant; monomer onto fibril end; 25 °C, 20 μL/min, 20 mM phosphate pH 7.4, 150 mM NaCl; slow phase of dissociation only; KD = RD/RA x KD of Aβ1-40 wt (100 nM, from earlier work)
Amyloid β 1–40 H14A [8] = assay: SPR; preformed fibrils immobilised on a CM5 chip by amine coupling (3500 RU), probed with monomers of the same variant; monomer onto fibril end; 25 °C, 20 μL/min, 20 mM acetate pH 5.5, 150 mM NaCl; slow phase of dissociation only; KD = RD/RA x KD of Aβ1-40 wt (1 nM, from earlier work)
[9] = tested on: corresponding immobilised fibrils (fibrillar form of Aβ); assay: SPR dissociation rate k(off) of Aβ fibrils, slow phase, relative to Aβ1–40 wt; format: binding; details: 150 mM NaCl, 25 °C, after 2 μM monomer injection, slow phase, points before 100 s excluded, one exponential decay, Aβ1–40 wt = 1
Experimental: (§1) Recombinant variants of Aβ1–40, Aβ1–40 H6A, Aβ1–40 H13A, Aβ1–40 H14A and Aβ1–40 H6A, H13A, H14A were obtained from AlexoTech (Umeå, Sweden). All lyophilised peptides were solubilised in 20 mM NaOH and separated by size‐exclusion chromatography (Superdex 10/300, GE Life Science, Uppsala, Sweden) in PBS with 2 mM EDTA, 5 mM NaOH and 150 mM NaCl. The pH of all purified peptide solutions was adjusted using a stock solution of phosphate or acetate buffer to give a final buffer concentration corresponding to 20 mM phosphate (pH 7.4) or acetate (pH 5.5) and 150 mM NaCl.
(§2) The interaction study between the fibrillar form of Aβ and its monomeric form was performed using a BIAcore® 3000 biosensor (GE Healthcare®, Uppsala, Sweden) equipped with a CM5 sensor chip (GE Healthcare®). First, the fibrillar form of Aβ was immobilised at a density of 3500 response units (RUs) on the dextran layer of the chip using standard amino coupling reagents at pH 4.0. All SPR experiments were performed at 25 °C at a flow rate of 20 μL·min^−1 in either a 20 mM phosphate buffer (pH 7.4) or 20 mM acetate buffer (pH 5.5). All experiments were performed in the presence of 150 mM NaCl, which represents a physiological ion‐strength.
(§3) All sensograms were corrected for nonspecific interactions using a reference surface according to standard procedures 16.
Note that the dissociation phase exposes a biphasic curvature. This is highly representative and frequently observed when performing these kinds of experiments. […] All analyses of decay rates within this work are therefore exclusively focused on the slower second phase of dissociation.
In contrast to the association rate, kon, the rate of dissociation, koff, is independent of the concentration of monomers. Subsequent to probing, the immobilised fibrils with free monomers, the rate of dissociation can be seen as a decrease in the signal over time.
Because the latter part of the curve, representing the slower phase of dissociation (indicated by arrow 3 Fig. 1), strongly dominates the interaction strength, we have exclusively focused on this part, and no points before 100 s were included in the curve. The dissociation curve could then be fitted to a one exponential decay.

[10] = tested on: corresponding immobilised fibrils (fibrillar form of Aβ); assay: SPR association rate k(on) of Aβ monomers onto immobilised fibrils, relative to Aβ1–40 wt; format: binding; details: 150 mM NaCl, 25 °C, 20 μL·min^−1, CM5 chip, fibrils at 3500 RU, end state after 60 s injection, Aβ1–40 wt = 1
Experimental: as §1, §2
Due to the polymeric nature of amyloid fibrils, the covalent immobilisation on the sensor chip, likely only occurs in minor fraction of the accessible amino groups. This treatment is therefore not anticipated to influence the overall incorporation of monomers in a significant manner. However, the influence from using immobilised fibrils or the dextran layer cannot be fully excluded and should therefore be disclosed.
as §3
Probing free monomeric Aβ against immobilised fibrils using SPR is a frequently used technique for measuring the intrinsic kinetic properties of Aβ polymerisation 11, 14, 17, 18, 19.
Fibrils from recombinant variants of Aβ1–40, Aβ1–40 H6A, Aβ1–40 H13A, Aβ1–40 H14A and Aβ1–40 H6A, H13A, H14A were prepared by prolonged incubation in either PBS (pH 7.4) or acetate buffer pH 5.5 containing 150 mM NaCl. Fibrils immobilised on a CM5 chip were then probed with their monomeric counterpart at different concentrations of Aβ monomers and analysed by SPR. Samples were injected for exactly 60 s and the maximal value at the end state of each injection (indicated by arrow 1 in Fig. 1A) was plotted as a function of the monomeric concentration, Fig. 2. This generates an association rate at each point of measurement. A guideline is given in the figures to illustrate the linearity.
By comparing the rate between the different Aβ variants, it is possible to determine relative differences in k(on).

[11] = tested on: immobilised Aβ fibrils / fibrillar end; assay: Fibril stability (KD, RD/RA, potentiation factor) from SPR association and dissociation; format: binding; details: 25 °C, relative to Aβ1–40 wt
Experimental: as §2, §3
While a simple interaction between, for example, a receptor and ligand can easily be determined through saturation experiments, this cannot be done with polymers since they, per definition, cannot be saturated.
This problem can, however, be circumvented by defining the concentration of free monomers where the fibrils are at steady state, i.e. the concentration of free monomers where neither association nor dissociation can be detected. We have previously shown that the KD for Aβ1–40 wt at neutral pH is around 100 nM and around 1 nM at pH 5.5 11, 13. The KD at neutral pH has also been investigated by Hasegawa and co‐workers 14 with similar results. All figures used here are therefore given as relative values to the KD for Aβ1–40 wt corresponding to 100 nM at neutral pH and 1 nM at pH 5.5.
Multiplying the relative RD/RA with the KD for Aβ 1–40 wt will then give the KD for the histidine derivatives.

Amyloid β 1–40 H6A (peptide)
Kd (Amyloid β 1–40 H6A [1]): 427 nM | RA (association rate relative to Aβ1-40 wt) (Amyloid β 1–40 H6A [1]): 0.45 | RD (dissociation rate relative to Aβ1-40 wt) (Amyloid β 1–40 H6A [1]): 1.92 | Kd (Amyloid β 1–40 H6A [2]): 1.43 nM | RA (association rate relative to Aβ1-40 wt) (Amyloid β 1–40 H6A [2]): 1.94 | RD (dissociation rate relative to Aβ1-40 wt) (Amyloid β 1–40 H6A [2]): 2.78

Amyloid β 1–40 H6A, H13A, H14A (peptide)
Kd [3]: 1230 nM | RA (association rate relative to Aβ1-40 wt) [3]: 0.22 | RD (dissociation rate relative to Aβ1-40 wt) [3]: 2.7 | Kd [4]: 5.31 nM | RA (association rate relative to Aβ1-40 wt) [4]: 1.57 | RD (dissociation rate relative to Aβ1-40 wt) [4]: 8.33

Amyloid β 1–40 H13A (peptide)
Kd (Amyloid β 1–40 H13A [5]): 716 nM | RA (association rate relative to Aβ1-40 wt) (Amyloid β 1–40 H13A [5]): 0.31 | RD (dissociation rate relative to Aβ1-40 wt) (Amyloid β 1–40 H13A [5]): 2.22 | Kd (Amyloid β 1–40 H13A [6]): 2.11 nM | RA (association rate relative to Aβ1-40 wt) (Amyloid β 1–40 H13A [6]): 1.01 | RD (dissociation rate relative to Aβ1-40 wt) (Amyloid β 1–40 H13A [6]): 2.13

Amyloid β 1–40 H14A (peptide)
Kd (Amyloid β 1–40 H14A [7]): 794 nM | RA (association rate relative to Aβ1-40 wt) (Amyloid β 1–40 H14A [7]): 0.34 | RD (dissociation rate relative to Aβ1-40 wt) (Amyloid β 1–40 H14A [7]): 2.7 | Kd (Amyloid β 1–40 H14A [8]): 2.19 nM | RA (association rate relative to Aβ1-40 wt) (Amyloid β 1–40 H14A [8]): 1.01 | RD (dissociation rate relative to Aβ1-40 wt) (Amyloid β 1–40 H14A [8]): 2.22

Aβ1–40 H6A
RD, relative dissociation (k(off) versus Aβ1–40 wt) ([9]; pH 5.5, 20 mM acetate): 2.78 | RD, relative dissociation (k(off) versus Aβ1–40 wt) ([9]; pH 7.4, 20 mM phosphate): 1.92 | RA, relative association (k(on) versus Aβ1–40 wt) ([10]; pH 5.5, 20 mM acetate): 1.94 | RA, relative association (k(on) versus Aβ1–40 wt) ([10]; pH 7.4, 20 mM phosphate): 0.45 | RD/RA ([11]; pH 5.5, 150 mM NaCl): 1.43 | RD/RA ([11]; pH 7.4, 150 mM NaCl): 4.27
